Values joined by “and” are separate entries in the source; they are usually repeats but may differ in a detail not shown here. Equal values may be shown once. Values belong to the substance of their own block, whether it stands above or below them.
Tests used:
[1] = molecular target: G20c portal protein L49C single mutant (bacteriophage G20c); assay: negative-stain transmission electron microscopy
[2] = molecular target: G20c portal protein L49C conjugated with maleimide-porphyrin (bacteriophage G20c); assay: SEC
[3] = molecular target: G20c portal protein V325G mutant (bacteriophage G20c); assay: crystal structure
[4] = molecular target: G20c portal protein L49C/V325G/I328G triple mutant (bacteriophage G20c); assay: negative-stain transmission electron microscopy
[5] = molecular target: G20c portal protein L49C/V325G/I328G conjugated with maleimide-porphyrin (bacteriophage G20c); assay: SEC
[6] = molecular target: G20c portal protein V325G/I328G double mutant (bacteriophage G20c); assay: X-ray diffraction, self-rotation function

stoichiometry N [4]: 12
Substance: G20c portal protein L49C/V325G/I328G triple mutant (natural protein)

stoichiometry N [5]: 12 and 24
Substance: G20c portal protein L49C/V325G/I328G conjugated with maleimide-porphyrin (natural protein)

The remaining lines, values behind:

Substance: G20c portal protein L49C single mutant (natural protein)
stoichiometry N [1]: 12

Substance: G20c portal protein L49C conjugated with maleimide-porphyrin (natural protein)
stoichiometry N [2]: 12 and 24

Substance: G20c portal protein V325G mutant (natural protein)
stoichiometry N [3]: 12

Substance: G20c portal protein V325G/I328G double mutant (natural protein)
stoichiometry N [6]: 12

Reference: article PMC5963890
